Laboratory results published in article doi:10.1101/2023.12.22.572801.

Molecular target: RbpB (BT_1887), recombinant B. thetaiotaomicron RbpB (B. thetaiotaomicron) (UniProt A9IXD6)
Test: SEC

stoichiometry N: 2
Substance: RbpB (BT_1887), recombinant B. thetaiotaomicron RbpB (from UniProt A9IXD6 1-44) (natural protein)
